Assay results as given in patent US20260042834A1 (HBM ALPHA THERAPEUTICS, published 2026).
Changes are numbered by the printed parent chain.

T1: corticotropin-releasing hormone (CRH) peptide (human and mouse, not fully specified)
T1 peptide: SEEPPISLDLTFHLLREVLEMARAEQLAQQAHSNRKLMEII

T2: corticotropin-releasing hormone (CRH) peptide (human and mouse (same sequence), not fully specified)
T2 peptide: T1 peptide

T3: CRH (CT-Biotin) (human and mouse, biotin on the added C-terminal K (-K-Biotin))
T3 construct: also called Peptide 4 (CRH-Biotin); C-terminally biotinylated corticotropin-releasing hormone
T3 peptide: T1 peptide

T4: CRH (NT-Biotin) (human and mouse, not fully specified; biotin at the N-terminus)
T4 construct: also called Biotin-CRH; N-terminally biotinylated corticotropin-releasing hormone
T4 peptide: T1 peptide

B1: PR302328 (antibody, human IgG1, kappa, V domains shown)
VH: EVKLVESGGGLVKPGGSLKLSCAASGFTFSSYAMSWVRQTPEKRLEWVASIRSGGTTYYPDSVKGRFTISRDNARNILYLQMSSLRSEDTAIYYCTRGIDWGQGTLVTVSA
VL: NIVMTQTPKFLLVSAGDRVTITCKASQSVNNDVAWYQQKPGQSPKLLIYYASNRYTGVPDRFTGSGYGTDFTFTISTVQAEDLAVYFCQQDYSSWTFGGGTKLEIKR
notes: Mouse variable domains, expressed recombinantly with human IgG1 wildtype Fc; also called Series 9 mAb
B2: PR302331 (antibody, human IgG1, kappa, V domains shown)
VH: B1 VH with T40S
VL: B1 VL with T22A
notes: as for B1
B3: PR302339 (antibody, human IgG1, kappa, V domains shown)
VH: B1 VH with M34L
VL: B1 VL
notes: as for B1
B4: PR302334 (antibody, human IgG1, kappa, V domains shown)
VH: B1 VH with S31T
VL: B1 VL with V19I, K102N
notes: as for B1
B5: PR301612 (antibody, human IgG1, kappa, V domains shown)
VH: EVKLEESGGGLVQPGGSIKLSCVASGFTFSGAWMAWVRQSPEKGLEWVAEIKNKANNHATFYAESVKGRFIISRDDSKSSVYLQMNSLRAEDTGTYYCTLPDVWGTGTTVTVSS
VL: QIVLTQSPAIMSASPGERVTISCSASSSVSNMYWYLQKPGSSPKPWIYRTSNLASGVPARFSGSGSGTSYSLTISSMEAEDVATYYCQQYHSFPRTFGGGTKLEIKR
notes: Mouse variable domains, expressed recombinantly with human IgG1 wildtype Fc; also called Series 4 mAb
B6: PR004289 (antibody, human IgG1, kappa, V domains shown)
VH: EVQLVESGGVLVQPGGSLRLSCAASGFIFSSYWMTWVRQAPGKGLEWVANIKQDGSEKYYVDSVKGRFTISRDNAKNSLFLQMNSLRAEDTAVYYCARTLIFDYWGQGTLVTVSS
VL: DIVMTQSPLSLPVTPGEPASISCRSSQSLLHSTGYNSLEWYLQKPGQSPQLLIYLGSNRASGVPDRFSGSGSGTDFTLKISRVEAEDVGIYYCMQTLQTPITFGQGTRLEIKR
notes: Expressed recombinantly with human IgG1 wildtype Fc; also called Hybridoma Clone 16g2; Series 1 mAb
B7: PR302315 (antibody, human IgG1, kappa, V domains shown)
VH: DVQLVESGGGLMQPGGSRKLSCVASGFTFSSFGMHWVRQAPEKGLEWVAYISSGSSIIYYADTVKGRFTISRDNPKNILFLQMTSLRSEDTAMYYCARDITTATFAYWGQGTLVTVSA
VL: DVVMTQTPLSLPVSLGDQASISCRSSQSLVHSNGNTYLHWYLQKPGQSPKLLIYKVSNRFSGVPDRFSGSGSGTDFTLKISRVEAEDLGVYFCSQSTHVPWTFGGGTKLEIKR
notes: Mouse variable domains, expressed recombinantly with human IgG1 wildtype Fc; also called Series 8 mAb
B8: PR301806 (antibody, human IgG1, kappa, V domains shown)
VH: QVQLQQPGAELVKPGTSVKMSCKASGYTFTSYWMHWVKQRPGQGLEWIGDIYPGSDSTNYNEKFKSKASLTVDTSSSTAYMQLSSLTSEDSAVYYCARSITTTTFWYFDVWGAGTTVTVSS
VL: DVLMTQTPLSLPVSLGDQASISCRSSQSFVYSNGNTYLQWYLQKPGQSPKLLIYKVSNRFSGVPDRFSGSGSGTDFTLKISRVEAEDLGVYYCFQGSHVPPTFGAGTKLELKR
notes: Mouse variable domains, expressed recombinantly with human IgG1 wildtype Fc; also called Series 6 mAb
B9: PR301780 (antibody, human IgG1, kappa, V domains shown)
VH: QIQLVQSGPELKKPGETVKISCKASGYTFTNFGLNWVKQAPGKGLKWMGWINTYTGEPTYTDDFKGRFAFSLETSASTAYLQINNLKKEDTATYFCARGTYRDDGAWFAYWGQGTLVTVSA
VL: B8 VL with S28I, F29I, Y31H, Q39E, Y92H, P101W, A105G, L111I
notes: Mouse variable domains, expressed recombinantly with human IgG1 wildtype Fc; also called Series 7 mAb
B10: PR302324 (antibody, human IgG1, kappa, V domains shown)
VH: EVQLQQSGPELVKPGASVKMSCKASGYTFTDYFMKWVKQSHGGSLEWIGVISPNNGDTFYNQKFKGKATLTVDKSSSTAFMQLNSLTSEDSAVYSCARGTDRALFAYWGQGTLVTVSA
VL: B8 VL with F29I, Y31H, N33D, Q39E, K44R, E84G, V99I, P101W, A105G, L111V
notes: Mouse variable domains, expressed recombinantly with human IgG1 wildtype Fc; also called Series 10 mAb
B11: PR302333 (antibody, human IgG1, kappa, V domains shown)
VH: QIQLVQSGPELKKPGETVKISCKASGYTFTNFGMNWVKQAPGKVLKWMGWINTYTGEPIYADDFKGRFAFSLETSASAAYLQINNLKNEDTATYFCSRSTMITTGGVFAYWGQGTLVTVSA
VL: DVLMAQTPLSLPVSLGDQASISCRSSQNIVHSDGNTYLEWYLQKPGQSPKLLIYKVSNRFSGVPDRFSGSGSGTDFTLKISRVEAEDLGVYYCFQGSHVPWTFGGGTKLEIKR
notes: as for B9
B12: PR302309 (antibody, human IgG1, kappa, V domains shown)
VH: B11 VH with F32Y, A61T, A78T
VL: B8 VL with T5A, S28T, F29I, Y31H, N33D, Q39E, P101W, A105G, L111I
notes: as for B9
B13: PR302332 (antibody, human IgG1, kappa, V domains shown)
VH: B11 VH with N35H, D62A, A78T
VL: B8 VL with T5A, F29I, Y31H, N33D, Q39E, P101W, A105G, L111I
notes: as for B9
B14: PR301788 (antibody, human IgG1, kappa, V domains shown)
VH: EMKLEESGGGLVQPGGSMKLSCVASGFTFSNYWMNWVRQSPEKGLEWVAEIRLKSNNYATHYAESVKGRFTISRDDSKSSVYLQMNNLRAEDTGIYYCTIGTLVYWGQGTLVTVSA
VL: DIVLTQSPASLAVSLGQRATISCRASQSVSTSTYNYMHWFQQKPGQPPKLLIKFASNLESGVPARFSGSGSGTDFTLNIHPVEEEDTATFYCQHSWEIPYTFGGGTKLEIKR
notes: Mouse variable domains, expressed recombinantly with human IgG1 wildtype Fc; also called Series 5 mAb
B15: PR301803 (antibody, human IgG1, kappa, V domains shown)
VH: B14 VH with M2V, S30N, V66L, I100V
VL: B14 VL with A12V, F40Y
notes: as for B14
B16: PR301790 (antibody, human IgG1, kappa, V domains shown)
VH: B14 VH
VL: B14 VL with T33S, F40Y
notes: as for B14
B17: PR301777 (antibody, human IgG1, kappa, V domains shown)
VH: B14 VH with S80G, R89G, I100V
VL: B14 VL
notes: as for B14
B18: PR301306 (antibody, human IgG1, kappa, V domains shown)
VH: B14 VH with M2V, H61L, I100R
VL: B14 VL with T33D, F40Y, F54Y, F90Y
notes: Mouse variable domains, expressed recombinantly with human IgG1 wildtype Fc; also called Series 3 mAb
B19: PR302335 (antibody, human IgG1, kappa, V domains shown)
VH: B7 VH with M12V, V23A, S56T, I58F, I78T, Y107F
VL: B7 VL with M4L, A19V, S28N, V30L, S32N, K50R, S81T, V99I
notes: as for B7
B20: PR302309-14 (antibody, human IgG1, kappa, V domains shown)
VH: QIQLVQSGSELKKPGASVKVSCKASGYTFTNYGMNWVRQAPGQGLEWMGWINTYTGEPIYTDDFKGRFVFSLDTSVSTAYLQISSLKAEDTAVYYCSRSTMITTGGVFAYWGQGTLVTVSS
VL: B8 VL with T5A, S28T, F29I, Y31H, N33D, Q39E, P101W, A105G, L111I
B21: PR302309-17 (antibody, human IgG1, kappa, V domains shown)
VH: B20 VH with I2V, S97A
VL: DVVMTQSPLSLPVTLGQPASISCRSSQTIVHSDGNTYLEWYQQRPGQSPRLLIYKVSNRFSGVPDRFSGSGSGTDFTLKISRVEAEDLGVYYCFQGSHVPWTFGGGTKVEIKR
B22: PR302309-20 (antibody, human IgG1, kappa, V domains shown)
VH: QIQLVQSGAEVKKPGASVKVSCKASGYTFTNYGMNWVRQAPGQRLEWMGWINTYTGEPIYTDDFKGRVTITLDTSASTAYMELSSLRSEDTAVYYCSRSTMITTGGVFAYWGQGTLVTVSS
VL: B21 VL with S7T, P12S, L15P, Q42L, R44K, R50Q
B23: PR302309-15 (antibody, human IgG1, kappa, V domains shown)
VH: B22 VH with I2V, L72R, S97A
VL: B8 VL with T5A, S28T, F29I, Y31H, N33D, Q39E, P101W, A105G, L111I
B24: PR302309-19 (antibody, human IgG1, kappa, V domains shown)
VH: B22 VH
VL: B21 VL
B25: PR302309-18 (antibody, human IgG1, kappa, V domains shown)
VH: B22 VH with I2V, L72R, S97A
VL: B21 VL
B26: PR302309-16 (antibody, human IgG1, kappa, V domains shown)
VH: B22 VH
VL: B8 VL with T5A, S28T, F29I, Y31H, N33D, Q39E, P101W, A105G, L111I
B27: PR302309-21 (antibody, human IgG1, kappa, V domains shown)
VH: B22 VH
VL: B21 VL with S7T, L11S, S48P, S72A

Molecular target: T1, corticotropin-releasing hormone (CRH) …
Assay: cell-based or functional assay

hCRHR1 Reporter IC50 [nM]	Binder
0.545	B1
0.39	B2
0.852	B3
0.546	B4
18.1	B5
3.13	B6
13.9	B7
4.53	B8
61.1	B9
0.498	B10
1.92	B11
1.38	B12
1.93	B13
0.46	B14
1.04	B15
0.055	B16
0.609	B17
35.6	B18
3.72	B19

Molecular target: T2, corticotropin-releasing hormone (CRH) …
Assay: cell-based or functional assay

hCRHR1 Luciferase Reporter Assay IC50 [nM]	Binder
1.68	B20
6.69	B21
3.07	B22
10.5	B23
4.83	B24
1.73	B25
5.47	B26
8.44	B27

Molecular target: T3, CRH (CT-Biotin)
Assay: ELISA, C-terminally biotinylated CRH on streptavidin-coated plate
Method: (§1) Streptavidin (Thermo, Cat: 21125) was diluted in PBS to a concentration of 2 μg/ml. 100 μl of diluted streptavidin was added per well to ELISA microplates, and the plates were incubated overnight at 4° C. […] 100 μL of 3,3′,5,5′-tetramethylbenzidine (TMB) substrate (Biopanda, Cat: TMB-S-003) was added, and the plates were incubated at room temperature for 15 minutes. 100 μL of ELISA stopping solution (Solarbio, Cat #: C1058) was added to terminate the reaction, and the optical density at 450 nm (OD450 nm) was determined by an ELISA plate reader (Molecular Devices, Spectra max 384 plus).

EC50 [nM]	Binder
0.03	B1
0.02	B2
0.018	B3
0.021	B4
0.033	B5
0.023	B6
0.008	B7
0.006	B8
0.03	B9
0.016	B10
0.022	B11
0.015	B12
0.072	B13
0.011	B14
0.013	B15
0.019	B16
0.038	B17
0.037	B18
0.016	B19

Molecular target: T4, CRH (NT-Biotin)
Assay: ELISA, N-terminally biotinylated CRH on streptavidin-coated plate
Method: as §1

EC50 [nM]	Binder
0.043	B1
0.016	B2
0.018	B3
0.026	B4
0.023	B6
0.014	B7
0.013	B8
0.938	B9
0.019	B10
0.035	B11
0.028	B12
0.107	B13
0.018	B14
0.021	B15
0.017	B16
0.027	B17
0.094	B18
0.014	B19
